Results published in US10272135B2, “Apolipoprotein O and fragments thereof for inducing apoptosis in a cancerous cell” (INSERM (INSTITUT NATIONAL DE LA SANTÉ ET DE LA RECHERCHE …, priority 2014, dated 2019).

Legend:
Bax = Bax mRNA levels in cardiac myoblasts; type: cell-based; details: ApoO cells vs control (FIG. 9f)
Text: After ethical committee approval, all patients in this study gave written consent for sample collection and molecular analysis prior to inclusion. Patients were carefully selected by physicians from the Department of Cardiology, Toulouse University Hospital, prior to coronary by-pass surgery. Bioinformatics. Microarray expression data from human heart samples were downloaded from the GEO repository (GSE1145). This series consisted of 107 myocardial samples collected from patients undergoing cardiac transplantation whose failure arises from different etiologies (e.g. idiopathic dilated cardiomyopathy, ischemic cardiomyopathy, valvular cardiomyopathy, and hypertrophic cardiomyopathy) and from “normal” organ donors whose hearts cannot be used for transplants. Arrays were intensity normalized and hierarchical clustering (average group linkage, Pearson correlation, threshold r=0.8) was applied to identify groups of co-expressed genes. […] All ApoO sequences within the expression vectors were verified by DNA double strand sequencing using ABI PRISM®BigDye™ Terminator version 3.1 Ready reaction cycle sequencing kit (Life Technologies SAS, Villebon sur Yvette) and loaded on an ABI 3130XL DNA sequencing instrument (Life Technologies SAS, Villebon sur Yvette). […]

U87 cells = assay: Caspase-3 activity in U87 glioblastoma transfectants; type: cell-based, human; details: U87 pTT-ApoO vs control pTT, 100 μM palmitate overnight (FIG. 13)
Description: U87 were obtained from the European Collection of Cell Cultures (Salisbury, England). p y, g) U87 cells were cultured in Dulbecco's modified Eagle medium (Life Technologies SAS, Villebon sur Yvette) adjusted to contain 1.5 g/liter sodium bicarbonate and supplemented with antibiotic-antimycotic solution (Life Technologies SAS, Villebon sur Yvette) and 10% fetal bovine serum (FBS, AbCys s.a., Paris). Cells were plated on 10-cm diameter tissue culture dish and grown in a 5% CO2 incubator at 37° C. with saturating humidity with medium changes every 2 days. U87 glioblastomas were stably transfected by electroporation and pools of transfectants were selected as previously described (Smih et al 2002). Western Blot Analysis Cultured cells were resuspended in RIPA buffer (0.15 M sodium chloride, 1% NP-40, 0.5% sodium deoxycholate, 0.1% SDS, 50 mM Tris, pH 8) in the presence of a mix protease inhibitors. The lysate was sonicated 6 s and centrifuged at 6,500 g for 10 min. […] Protein immune-band densitometry was quantified with the ImageJ software. […] Caspase-3 activities were measured using the Caspase-3 Substrate IV Fluorogenic substate (VWR, Strasbourg) and a Victor™ X5 2030 multilabel reader (Perkin Elmer, Courtaboeuf). […]
The inventors measured and compared the Caspase-3 activity in • control U87 cells (pTT); and • U87 transfectants cells overexpressing ApoO (pTT-ApoO).

glioblastoma cells = assay: Transmission electron microscopy of glioblastoma cells; type: cell-based
Description: Transmission electron microscopy of control (left) and ApoO expressing (right) cells incubated overnight with 100 μM of palmitate (n=6). Black arrows indicate lipid droplets.
Transmission electron microscopy of control (left) and ApoO expressing (right) cells. Black arrows indicate blebs (n=3).

B1: ApoO: 198-amino acid apolipoprotein, SEQ ID NO: 1; tested by overexpression from expression vectors or transgene (protein, listed as Homo sapiens)
chain: MFKVIQRSVGPASLSLLTFKVYAAPKKDSPPKNSVKVDELSLYSVPEGQSKYVEEARSQLEESISQLRHYCEPYTTWCQETYSQTKPKMQSLVQWGLDSYDYLQNAPPGFFPRLGVIGFAGLIGLLLARGSKIKKLVYPPGFMGLAASLYYPQQAIVFAQVSGERLYDWGLRGYIVIEDLWKENFQKPGNVKNSPGTK
How did the “expression of Bax” value (Bax) turn out when B1 was run?
The value was “increase”.

And the Caspase-3 activity (U87 cells)?
Its Caspase-3 activity is “significant increase”.

What about the “apoptosis (membrane blebbing)” value (glioblastoma cells; cells which express ApoO vs cells which do not (FIG. 16)) of the same molecule?
The value was “apoptosis occurs”.

What about the mitochondrial morphology (glioblastoma cells; expression or overexpression of ApoO in glioblastoma cells) of the same molecule?
Its mitochondrial morphology is “development of abnormal mitochondria”.

And the lipid accumulation (glioblastoma cells; glioblastoma cells expressing ApoO, in the presence of palmitate (FIG. 15))?
Its lipid accumulation is “lipid accumulate”.
